This passage reports amyloid nucleation score results from the supplement of paper PMC12042874.

± gives the uncertainty stated by the source.

The series can be described thus: amyloid nucleation score (Sup35N fusion, yeast selection) (log enrichment); library NNK3; higher = more nucleation; inactive = no reads after selection. The method in brief:
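Output and input plasmid inserts were sequenced by Illumina after psi-negative yeast carrying Sup35N fused to peptides of 20 random codons had been induced 24 hours with 100 μM copper sulfate and grown 7 days at 30°C on medium lacking adenine and uracil. The nucleation score is the DiMSum log enrichment of output over input reads, centred on the mode score of non-aggregating sequences. Sequences with under 100 input reads were excluded.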
Consider GCLRDPTVAQVDYLGYGVRL, for which the amyloid nucleation score entry is “inactive”.
With GCRYQGHCHVYYLAERIACD, the amyloid nucleation score result is “inactive”.
Take GCSLGTHSVTLTFM: the amyloid nucleation score result was “inactive”.
With GCSSVRAGH, the amyloid nucleation score entry is “inactive”.
To GCTCQ belongs 1.21 ± 0.15.
As for GCTDIHASEH, the amyloid nucleation score result is “inactive”.
For GCVLCGIPSAWRSPGASSDA, the amyloid nucleation score turned out to be 1.05 ± 0.2.
Take GDCFWSPDKNWIALEVFQTF: the amyloid nucleation score entry was “inactive”.
Regarding GDDIEILSFEVWRVFSKSWS, the amyloid nucleation score result was “inactive”.
With GDDSSRHFNEFLYNRFAALW the entry was “inactive”.
To GDLKLGLVIYESCGSMVMSW belongs “inactive”.
With GDNRFLYELFLPHLNVVSNL the entry was “inactive”; with GDRRER, 0.811 ± 0.16.
Take GDTHHCAADGV: the amyloid nucleation score was 0.504 ± 0.24.
To GDTVLVILSILSVGCC belongs 1.2 ± 0.15; to GDVRLFTCRMLGILFFSIT, “inactive”; to GELPLRVKVKSFHTDTSLRK, 0.614 ± 0.29.
For the substance GERTVLVKGLMRCIWVPVIW, the amyloid nucleation score entry was “inactive”.
To GFESPRGFSSVFSIVYGFWA belongs 0.855 ± 0.2; to GFGGFGRVDNSLCIKAPCCV, 0.127 ± 0.29.
With GFGGSSAHDRGYETRKSSLE the entry was “inactive”.
The substance GFHTI yielded an amyloid nucleation score of -0.223 ± 0.73.
For GFLSGVKVLNGGEDNDTLPE, the amyloid nucleation score entry was “inactive”.
With GFSTYRIKIVYDVNMY the entry was “inactive”.
Turning to GFYLVVKTINGFPNNLKWMA, the amyloid nucleation score was found to be 0.296 ± 0.21.
Take GFYRLVVQGLVVSRGLNWCV: the amyloid nucleation score result is “inactive”.
With GFYVLMISVTLMDSQTPLR the figure was 1.65 ± 0.11.
To GGALAKNHILCR belongs “inactive”; to GGCHNGCGFYCRRN, “inactive”; to GGHLLGHIASVFMEFCALQC, “inactive”.
Turning to GGKMMFFKIRFFC, the amyloid nucleation score result is “inactive”.
With GGNICPIRPLSRKEWELGRH the figure was -0.566 ± 1.4; with GGQVRDCDNVEQCSATNSEG, “inactive”; with GGSCTDSVVIEGI, 0.252 ± 0.24.
With GGTVFSNCVGVRRLNMYINY the entry was “inactive”; with GGWIY, “inactive”; with GGYSQKLYILYDYLFENYYS, “inactive”.
With GGYVDLRLMT the entry was “inactive”.
The substance GHCEYVVCYVNCRFVQMSVR came in with an amyloid nucleation score of 1.65 ± 0.093.
To GHNVQGNRLMITYDLNIVGS belongs “inactive”; to GHRHQFSHATVNDVKSRV, “inactive”.
As for GHVAHLINILYVNSTIPQTG, the amyloid nucleation score result is “inactive”.
With GIMSCQ the figure was 0.021 ± 0.88; with GINDLISSALNNSRRLRTVG, “inactive”; with GIREAV, “inactive”.
To GIRVF belongs “inactive”.
With GIRVSLGVSFRECFNNSVSR the figure was 2.43 ± 0.053.
Take GISRMGMAEDPDSGWSHDYY: the amyloid nucleation score entry was “inactive”.
To GISYLVRNSGAKRGD belongs “inactive”; to GITRVRSSFVSAASHV, “inactive”; to GIVSYCICIFGNFQK, 2.64 ± 0.064.
With GKCLLYRFILILLHP, the amyloid nucleation score is -0.155 ± 0.93.
To GKCVGEPPAQSEKTWRNGSL belongs “inactive”; to GKIEDYCLVRESQAIPSLLQ, “inactive”; to GKIFMSVTFF, 2.43 ± 0.054.
With GKLSNH, the amyloid nucleation score result was “inactive”.
To GKWKIKQ belongs “inactive”.
Consider GLCNTYCFHHCFRWVR, for which the amyloid nucleation score is 0.769 ± 0.24.
Consider GLCSFR, for which the amyloid nucleation score result was “inactive”.
For the substance GLDRRKICKLHGYGNS, the amyloid nucleation score result is “inactive”.
With GLFIGYDVQ the entry was “inactive”; with GLFLGYSLIASVIGRLVDNL, “inactive”; with GLGYWAKGSHLWVLLRLLNH, “inactive”.
With GLLMFLNVCLVVTVSARTYS, the amyloid nucleation score result is “inactive”.
In the case of GLMERNDMSEYSSAG, the amyloid nucleation score result was “inactive”.
GLNLISISFRAGFAGMHRRA returned an amyloid nucleation score of 1.82 ± 0.099.
With GLSKKKECGFLLARIVVVVV the entry was “inactive”.
In turn, GLTLRRWINAFHRHVGNKGQ returned an amyloid nucleation score of 0.592 ± 0.24.
To GLTVCTSYLSISAYDMYANL belongs 1.29 ± 0.067; to GLYVVYFNILTTKGYQLIVM, “inactive”.
With GMCKGMVIGSAVDFTMFSAA the entry was “inactive”; with GMFARHVFMIIEPHRIIVFH, “inactive”.
With GMQAGTGSKCCGRTGQI the entry was “inactive”; with GMQPVQQ, “inactive”; with GMVMVLQTTRYNCHMMRELQ, “inactive”.
As to GNALSAFPVGSFRKVVRCHG, the amyloid nucleation score entry is “inactive”.
With GNDNYVVLFNCDV the entry was “inactive”; with GNELQSEFLDFLTCRERGKG, “inactive”.
Regarding GNLASICVRLCWLCARLWST, the amyloid nucleation score entry was “inactive”.
For the substance GNLDTS, the amyloid nucleation score was -0.668 ± 1.
With GNNRGTVSWVERGAWALTKA the entry was “inactive”; with GPARTRWILPRVLGCTYRAA, “inactive”.
To GPILL belongs “inactive”; to GPNDLSMAFRTLYDQAVPYV, -0.521 ± 1; to GQAVNYFGGA, “inactive”.
To GQWLSDTR belongs “inactive”; to GRARNHHRKNRGIGL, “inactive”; to GRHRFYSAIKQVQR, “inactive”.
GRIFYWRDMDTYQR: the amyloid nucleation score result is “inactive”.
To GRKAWDEL belongs “inactive”; to GRMWSACLGYMWGCFWREFW, “inactive”; to GRPIKWKKRSAVK, “inactive”.
As to GRPRVI, the amyloid nucleation score entry was “inactive”.
With GRQYVCYYTFLKLYWLKSMW the entry was “inactive”; with GRSFCVAMVVIEGVLYRDLS, 0.441 ± 0.32.
GRSRLQQVIHLAFTIKSVNG: the amyloid nucleation score entry is “inactive”.
GRTSWGRRR: the amyloid nucleation score result was “inactive”.
To GRVSYCITRME belongs “inactive”.
With GRYCWCSLLAKYEMSLPRAR the figure was -0.405 ± 0.8.
With GSACFPYFYTYSFRFLVAC the entry was “inactive”; with GSEHYLPSYYRFFLLVFYDV, “inactive”; with GSEQSVEDGFAWMKDTYFCL, “inactive”.
In the case of GSGCVIYIL, the amyloid nucleation score entry is “inactive”.
Turning to GSIVFGCSWASQSVCQDQWV, the amyloid nucleation score result is “inactive”.
To GSKAHNDIDRGGSWMGWNIA belongs “inactive”.
For the substance GSLFVI, the amyloid nucleation score result is “inactive”.
Turning to GSLVRV, the amyloid nucleation score entry is “inactive”.
Regarding GSMIFFSICSHFLYLLHTYT, the amyloid nucleation score result is “inactive”.
To GSMSSCLVKRLNC belongs “inactive”; to GSPVRWRGPGFTSPRLTRA, 0.766 ± 0.26; to GSSYTGTEVVCKLDFSHVFR, 0.92 ± 0.13.
With GSVFTRFVSREVFCWDACCR the entry was “inactive”; with GSVGILHFGKYHSIVYSACN, “inactive”; with GSVRNSDKKWVPIVVYIPLQ, “inactive”.
With GSVSDGTILKLFHVSDRGTW the entry was “inactive”.
As for GSYFN, the amyloid nucleation score entry is “inactive”.
To GSYLDDRGSGASIATLLVVM belongs “inactive”.
With GTDSFAIYSWKIRLLSERYP the entry was “inactive”; with GTEYLV, “inactive”; with GTGTRSHTLA, “inactive”.
In the case of GTLLMMVFGTVHS, the amyloid nucleation score result is “inactive”.
Regarding GTLYAKSVRNKGSS, the amyloid nucleation score entry is “inactive”.
GTMIRQLERELSHMREVTYI: the amyloid nucleation score entry was “inactive”.
For the substance GTWSVMCSYEPMAR, the amyloid nucleation score entry was “inactive”.
To GVDLDLLICGYMLWMDYCSG belongs “inactive”; to GVDRRIR, “inactive”.
To GVDSARQRSDHVNRERSSGC belongs “inactive”.
To GVGCTKSECRSICMPKHP belongs “inactive”; to GVGNWKP, “inactive”; to GVIWSMWIASL, “inactive”.
Turning to GVLASIKELH, the amyloid nucleation score result was “inactive”.
Turning to GVLSLLFSYIIVYEWKEMGN, the amyloid nucleation score entry is “inactive”.
Take GVMGYSSYSLSAENTVYSPW: the amyloid nucleation score entry was “inactive”.
